From paper PMC4954775
Where a chain is given by its changes, count along the chain named. Names may count otherwise.

B1: α-L-iduronidase (IDUA) (Homo sapiens) (protein)
chain: APHLVHVDAARALWPLRRFWRSTGFCPPLPHSQADQYVLSWDQQLNLAYVGAVPHRGIKQVRTHWLLELVTTRGSTGRGLSYNFTHLDGYLDLLRENQLLPGFELMGSASGHFTDFEDKQQVFEWKDLVSSLARRYIGRYGLAHVSKWNFETWNEPDHHDFDNVSMTMQGFLNYYDACSEGLRAASPALRLGGPGDSFHTPPRSPLSWGLLRHCHDGTNFFTGEAGVRLDYISLHRKGARSSISILEQEKVVAQQIRQLFPKFADTPIYNDEADPLVGWSLPQPWRADVTYAAMVVKVIAQHQNLLLANTTSAFPYALLSNDNAFLSYHPHPFAQRTLTARFQVNNTRPPHVQLLRKPVLTAMGLLALLDEEQLWAEVSQAGTVLDSNHTVGVLASAHRPQGPADAWRAAVLIYASDDTRAHPNRSVAVTLRLRGVPPGPGLVYVTRYLDNGLCSPDGEWRRLGRPVFPTAEQFRRMRAAEDPVAAAPRPLPAGGRLTLRPALRLPSLLLVHVCARPEKPPGQVTRLRALPLTQGQLVLVWSDEHVGSKCLWTYEIQFSQDGKAYTPVSRKPSTFNLFVFSPDTGAVSGSYRVRALDYWARPGPFSDPVPYLEVPVPRGPPSPGNP
B2: α-L-iduronidase (IDUA) (Homo sapiens; P533R) (protein)
chain: B1 chain with P506R

Substrate: Cc1cc(=O)oc2cc(O[C@@H]3O[C@@H](C(=O)O)[C@@H](O)[C@H](O)[C@H]3O)ccc12
Experiment: purified protein

Protein	Km
B1	27.0 ± 2.3 µM
B2	35.3 ± 3.66 µM
